Measured values reported in the supplement of paper PMC9170038.

Tested on: MS2 coat protein
Assay: apparent KD of MS2 coat protein; designed switch direction (-1 OFF switch, 1 ON switch): -1; higher = weaker reporter binding
Outline: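 Normalised cluster fluorescence was curve-fitted, and each design's median over clusters is its apparent KD. Before this, SNAP-549-labelled MS2 coat protein was titrated from 0.7 or 1.5 nM, doubling to 3 µM, over RNA switches transcribed on Illumina chips by stalled E. coli RNA polymerase. Titrations had no input, 200 uM small-molecule ligand, or an oligonucleotide input, and steps lasted 0.8–1.5 h (lowest) to 10–20 min (highest).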

[1] = input ligand: microRNA oligo, concentration not stated
[2] = Eterna round: R95, input ligand: microRNA oligo, concentration not stated
[3] = Eterna round: R95, input ligand: FMN 200 uM
[4] = Eterna round: R95, input ligand: none

Sequence	apparent KD of MS2 coat protein (input ligand: FMN 200 uM)	apparent KD of MS2 coat protein (input ligand: none)	apparent KD of MS2 coat protein [1]	apparent KD of MS2 coat protein [2]	apparent KD of MS2 coat protein [3]	apparent KD of MS2 coat protein [4]
GUCUAACAUGAGGAUCACCCAUGUCAGGAUAUGCGAAUUUCAUCAAAAGAUGAAAUUUGCAGAAGGGACUAGAC [Omei Ex1 A28] (Eterna round: R97, puzzle: Exclusion 1)	26.6 nM	24.1 nM	–	–	–	–
GAACUGAAGCAAAGCUUUAGUCGUACAUGAGGAUCACCCAUGUAGGAUAUGGUAGGCAAAGCUUACUAGAAGGACAGAGUGAUC [Mat - Exclusion NG 3 - Mod of JL - D70] (Eterna round: R96, puzzle: Exclusion NG 3)	338 nM	336 nM	336 nM	–	–	–
UAUUAGCAAGCGAAAUCCCACAUGAGGAUCACCCAUGUAAAUAAAAGCUCCAGAAUUACUGGAGCAGCUCGUCUUAU [Winner reversed engineered 18] (Eterna round: R97, puzzle: Sensor, turn-off variant 1)	29.8 nM	24.5 nM	–	–	–	–
CUUUUGUGAGGAUAUUAGUAGUAAAUAAAUUAAAUUACUACUGAGAAGGCACAUGAGGAUCACCCAUGUUCCUC [salish99_ex4_r3_057] (Eterna round: R96, puzzle: Exclusion 4)	428 nM	36.6 nM	32.8 nM	–	–	–
CAGCUGAAAGUGAGGAUAUCUAGAGCCUCGGCUCUAGAGAAGGCACAUGAGGAUCACCCAUGUGAUCACAGCUG [BmEx4/7-A2] (Eterna round: R97, puzzle: Brourd's mod of Exclusion 4)	1320 nM	307 nM	–	–	–	–
GUUCGACAUGAGGAUCACCCAUGUGAGGAUAUACGAUUAGCUGCUAGGUAGUUAGUAUGUAGAAGGUGCGUGUU [EX1 #70] (Eterna round: R97, puzzle: Exclusion 1)	53.3 nM	54.2 nM	–	–	–	–
GAGAUGUGAGGAUAUCUAGACCGCGGAAGAGCUGCGGUCCGAGAGAAGGCACAUGAGGAUCACCCAUGUGAUGA [Attere] (puzzle: Exclusion 4)	–	–	–	38.4 nM	–	–
GGUUGGCGAGGAUAUACAUGAGGAUCACCCAUGUGAGAGAAAAAAGUGAGGAAGCAAAGUAGAAGGCGCUGACG [salish99_ex3_r3_034] (puzzle: Exclusion 3)	–	–	–	42.8 nM	117 nM	77.8 nM
ACUGGUCGAGGAUAUAUAUGACGUGCUUCGGCACGAAGAUCACAUGAGGAUCACCCAUGUAGAAGGCGACCAGU [E2/8-A2] (Eterna round: R97, puzzle: Exclusion 2)	731 nM	130 nM	–	–	–	–
CUUUAACAAGCGAGAUCCAACAUGAGGAUCACCCAUGUGCAUCCACGAUUAGUGGGUGCGAAAGCUCGUCUUAUAUG [v1] (Eterna round: R97, puzzle: Sensor, turn-off variant 1)	20.9 nM	21.6 nM	–	–	–	–
AAGGGACAUGAGGAUCACCCAUGUCAGGAUAUUAGUGUGAGUCACCUUGUGAAUACACUAAGAAGGGAUAGAAA [Eternabot (Original) Solution 38] (Eterna round: R97, puzzle: Exclusion 1)	69.8 nM	84.5 nM	–	–	–	–
CCUAGUUGGUAAGGAUAUCCUACAUUGUUCUGGCCCGGGCAUGCUACAUGAGGAUCACCCAUGUGGGAGAAGGUGCGUCAUCGC [Design 17] (Eterna round: R96, puzzle: Exclusion NG 2)	80.4 nM	71.7 nM	53.3 nM	–	–	–
UCGGCGCGAGGAUAUACGUUUGCUUUUUAGGGUCGUGGCGUACAUGAGGAUCACCCAUGUAGAAGGCGCGCCGC [Apr-15 SS2-29] (puzzle: Exclusion 2)	–	–	–	14.6 nM	–	–
AAAUUAGCAAGUAGGUCCGACAUGAGGAUCACCCAUGUAAUCUAAUAUUACGCUGCAUGAGAGUGCGCUCGUCUUAA [Sensor-V1 #18] (Eterna round: R97, puzzle: Sensor, turn-off variant 1)	196 nM	220 nM	–	–	–	–
UAAUUAAUAAGAUCAAUUAAUUAACAUGAGGAUCACCCAUGUGAGGAUAUCAGCUCGUUUAGAGCUGAGAAGGCACAAUAAUUA [ExNG3/17-C2] (Eterna round: R96, puzzle: Exclusion NG 3)	72 nM	46.8 nM	41.6 nM	–	–	–
UACCAGGUUCAGGAUAUGCCCUCGAAGAGAGGCGCAGAAGGGAACACAUGAGGAUCACCCAUGUCAGCCGCUUC [Eternabot (Original) Solution 45] (Eterna round: R97, puzzle: Exclusion 6)	26.6 nM	17.1 nM	–	–	–	–
CUCAGGGUGCAGGAUAUCAUGGGAUAUCCCACCUGAGAAGGGCGAACAUGAGGAUCACCCAUGUGAGUGGGAGA [Eternabot (L2) Solution 85] (Eterna round: R97, puzzle: Exclusion 6)	488 nM	441 nM	–	–	–	–

Sequence	apparent KD of MS2 coat protein (input ligand: FMN 200 uM)	apparent KD of MS2 coat protein (input ligand: none)	apparent KD of MS2 coat protein [1]	apparent KD of MS2 coat protein [2]	apparent KD of MS2 coat protein [3]	apparent KD of MS2 coat protein [4]
GGUUGACAUGAGGAUCACCCAUGUGAGGAUAUGCGAGAGAAAAAAGUGAGGAAGAGAUGCAGAAGGCGCUGUCG [salish99-ex1_r3_016] (puzzle: Exclusion 1)	–	–	–	85.8 nM	68.5 nM	121 nM
GCGUAGUAUGUAGGAUAUCGGUCAGUUUCUGAUCGAGAAGGACAUGAGGAUCACCCAUGUAAAACGUCCGGUUUCUGGAUACGC [JL ENG1 3.57] (Eterna round: R96, puzzle: Exclusion NG 1)	27.5 nM	23 nM	16.3 nM	–	–	–
AAAGAUGUAGGAUAUGUCCAUCCAGACAUGAGGAUCACCCAUGUGAGGGCCGGGUGUUGGGCAGAAGGACACCGGU [Eternabot (Original) Solution 19] (Eterna round: R97, puzzle: Exclusion 5)	27.2 nM	31.4 nM	–	–	–	–
CUUAGCGUAGGAUAUUAGUACAUGAACAUGAGGAUCACCCAUGUGAGGUGGGUCUUAGAUUAAGAAGGGCGAAGAA [EX5 #32] (Eterna round: R97, puzzle: Exclusion 5)	221 nM	249 nM	–	–	–	–
CGAUUGUGAGGAUAUACUUGUGGUAAUGCACCUGUAUGUAAACAUGAGGAUCACCCAUGUAGAAGGUACGACAG [Eternabot (L2) Solution 11] (Eterna round: R97, puzzle: Exclusion 2)	27.6 nM	27.5 nM	–	–	–	–
GGCAAUAUGUAGGAUAUCGUAAUGGAAACAUUACGAGAAGGGCAAACAUGAGGAUCACCCAUGUUCCUUAAGCC [Mat - Exclusion 6 - Eli Mod - D69] (puzzle: Exclusion 6)	–	–	–	15 nM	21.5 nM	18.4 nM
UAUUAGCAAGCGAGAUCCCACAUGAGGAUCACCCAUGUAGCAUCCAGAAUUACUGGGUGCAAAAGCUCGUCUUAUUA [Winner reversed engineered 4] (Eterna round: R97, puzzle: Sensor, turn-off variant 1)	25.4 nM	26.1 nM	–	–	–	–
CACAAGCUUUUUUGUUGCUUUUUAGUUGGUGUAUGAUAAACAUGAGGAUCACCCAUGUAAUAGAUGCUCGAUCUUUU [JR_SV3TOV2_Sub083] (puzzle: Sensor v3, turn-off variant 2)	–	–	–	21.7 nM	24.5 nM	27 nM
GAUAAGGUAGGAUAUACGAAUAAAUAGGGUAGUAAUAAUACACAUGAGGAUCACCCAUGUAGAAGGACCAAUAG [Mat - Exclusion 2 - Mod of my Tesla design - D41] (puzzle: Exclusion 2)	–	–	–	19.4 nM	37.4 nM	21.4 nM
UUUUGGCAUGUAGGAUAUGGGUCCGAUUAGGAUUUAGAAGGACAUGAGGAUCACCCAUGUGCAUUUAAUUGGUCUUUACUUUUU [EXclNG1-LROPPY13] (Eterna round: R96, puzzle: Exclusion NG 1)	115 nM	72.9 nM	61.2 nM	–	–	–
CCGGUUGGCGCAGGAUAUACAUGAGGAUCACCCAUGUUCAUGAGGAUCGCCCAUGAGUUUUUGUUGUAGAAGGGUGGCCCGGCC (Eterna round: R96, puzzle: Exclusion NG 2)	92.4 nM	84 nM	70 nM	–	–	–
CAUUGUUAUCGAGGAUAUCGUAUUGAGAUACUACGAGAAGGCGGACUAAACAUGAGGAUCACCCAUGUGAGACGGAUGCUUGGG [Ex NG1 #33] (Eterna round: R96, puzzle: Exclusion NG 1)	59 nM	34.3 nM	21 nM	–	–	–
AAUAACAGAGGAUAUACUGUUUUAUGUGUUUGUUAUUUUGAACAUGAGGAUCACCCAUGUAGAAGGCUGAAUAA [JMF 23] (puzzle: Exclusion 2)	–	–	–	21.3 nM	–	–
CCGUAACAUGAGGAUCACCCAUGUCAGGAUAUUCCAAAAUCGUCGAAAGACGAUAACAGAAGAAGGGACAACGG [Fiskxlusion 2 - Jieux - Exclusion 1] (Eterna round: R97, puzzle: Exclusion 1)	47.6 nM	28.9 nM	–	–	–	–
UGUACUAUGCGAGCUGACUUGCGUAGUGCAGCAGGUGUUACAUGAGGAUCACCCAUGUCCUCAUUUGCUCGUCUUAU [SL-sv3-2.04 JL mod] (puzzle: Sensor v3, turn-off variant 2)	–	–	–	231 nM	289 nM	200 nM
AGUACUAACACGCCAGUGUUAGUACAAUAAGCUUGUGAAACAUGAGGAUCACCCAUGUCCUCAUAAGCUCGUCUUAU [salish99_TOv2_r3_028] (puzzle: Sensor v3, turn-off variant 2)	–	–	–	677 nM	16.9 nM	15.1 nM
